Results on 33 sequences are retold here after the Immune Epitope Database (IEDB).

The target of experiment [1] is HLA-A*11:01. The experiment can be described thus: IEDB peptide-MHC binding, purified MHC/direct/fluorescence; filed as Kd, often an IC50 or EC50 that approximates it; ≥ and ≤ were set here for values at or beyond the usual limits of such assays. The following applies: source organism: Salmonella enterica subsp. enterica serovar Typhi.
A further experiment deals with HLA-A*69:01. The experiment is described as above.
In another experiment the target is HLA-B*07:02. The experiment is described as above. Conditions: source organism: Homo sapiens.
The next experiment addresses HLA-A*24:02. The experiment in a line: IEDB peptide-MHC binding, purified MHC/competitive/radioactivity; filed as Kd, often an IC50 or EC50 that approximates it; ≥ and ≤ were set here for values at or beyond the usual limits of such assays.
Another experiment has as its target HLA-A*23:01. The experiment is described as above.
Experiment [2] has as its target HLA-A*02:01. The experiment can be described thus: IEDB peptide-MHC binding, purified MHC/competitive/fluorescence; filed as Kd, often an IC50 or EC50 that approximates it; ≥ and ≤ were set here for values at or beyond the usual limits of such assays.
The target of experiment [3] is HLA-A*02:01. The experiment can be described thus: IEDB peptide-MHC binding, purified MHC/competitive/fluorescence; ≥ and ≤ were set here for values at or beyond the usual limits of such assays.
A further experiment addresses HLA-A*30:02. The experiment in a line: IEDB peptide-MHC binding, purified MHC/competitive/radioactivity; filed as Kd, often an IC50 or EC50 that approximates it; ≥ and ≤ were set here for values at or beyond the usual limits of such assays.
A further experiment deals with HLA-B*58:01. The experiment in a line: IEDB peptide-MHC binding, purified MHC/direct/fluorescence; filed as Kd, often an IC50 or EC50 that approximates it; ≥ and ≤ were set here for values at or beyond the usual limits of such assays.
The target of experiment [4] is HLA-A*02:01. The description is as above.
The target of the next experiment is HLA-A*30:01. The experiment in a line: IEDB peptide-MHC binding, purified MHC/competitive/radioactivity; filed as Kd, often an IC50 or EC50 that approximates it; ≥ and ≤ were set here for values at or beyond the usual limits of such assays.
A further experiment addresses HLA-A*68:01. The experiment is described as above.
The target of a further experiment is HLA-A*31:01. The description is as above.
The next experiment deals with HLA-A*03:01. Described as above.
The next experiment addresses HLA-A*33:01. The description is as above.
Experiment [5] concerns the target HLA-A*11:01. The experiment is described as above.
In the next experiment the target is HLA-B*15:01. The experiment can be described thus: IEDB peptide-MHC binding, purified MHC/direct/fluorescence; filed as Kd, often an IC50 or EC50 that approximates it; ≥ and ≤ were set here for values at or beyond the usual limits of such assays. The following applies: source organism: SARS-CoV1.
A further experiment deals with HLA-B*40:01. Described as above. Conditions: source organism: Influenza A virus (A/Denver/1957(H1N1)).
Setting [6] is: source organism: Dengue virus 4 Philippines/H241/1956.
[7] abbreviates: source organism: Sudan ebolavirus.
Where [8] appears, read: source organism: Dengue virus 1 Brazil/97-11/1997.
[9] abbreviates: source organism: Entamoeba histolytica HM-1:IMSS.
The mark [10] stands for this setting: source organism: Dengue virus 3 Martinique/1243/1999.
[11] abbreviates: source organism: Zaire ebolavirus.
Where [12] appears, read: source organism: Lymphocytic choriomeningitis virus (strain Armstrong).
Setting [13] is: source organism: Listeria monocytogenes.
Setting [14] is: source organism: Dengue virus 2 Jamaica/1409/1983.
[15] abbreviates: source organism: Vaccinia virus WR.
Setting [16] is: source organism: SARS coronavirus Tor2.

Turning to AAGLPAIFV, the Kd turned out to be 3860 nM with HLA-A*11:01 [1] and 1070 nM with HLA-A*69:01 (source organism: Salmonella enterica subsp. enterica serovar Typhi).

APRALLLLL gave a Kd with HLA-B*07:02 of 2100 nM. For the sequence ATHKAPQPA, the Kd in the experiment with HLA-A*69:01 (source organism: Haemophilus influenzae) came to 3820 nM. For AWRTIMAVLF, the Kd in the experiment with HLA-A*24:02 (setting [6]) was 22.1 nM; with HLA-A*23:01 (setting [6]), 51.5 nM. CLMTYSHHA gave a Kd with HLA-A*02:01 [2] (source organism: Escherichia coli F11) of 0.9 nM. On to CLPPPPDGV, for which the IC50 with HLA-A*02:01 [3] (setting [7]) came to 1490 nM. CYSQVNPLTL: the Kd in the experiment with HLA-A*24:02 (setting [8]) worked out at 144 nM; with HLA-A*23:01 (setting [8]), 189 nM.

For DKKGKVVGLY, the Kd with HLA-A*30:02 (source organism: Dengue virus 2 Peru/IQT2913/1996) was 2.56 nM. DLVHFASPL: in the experiment with HLA-A*02:01 [3] (source organism: Hepatitis B virus), the concentration for half-maximal inhibition (IC50) was no less than 366000 nM.

On to DPSGAYFAW, for which the Kd with HLA-B*07:02 was found to be 17600 nM; with HLA-B*58:01 (source organism: Homo sapiens), 1570 nM. On to EINPFYQDV, for which the Kd with HLA-A*69:01 (setting [9]) amounted to 7.6 nM; with HLA-A*02:01 [4] (setting [9]), 19500 nM. On to ESRTIRVLK, for which the Kd came out at 8.81 nM with HLA-A*30:01 (setting [10]) and 237 nM with HLA-A*68:01 (setting [10]).

Regarding EVTEIDQLV, the half-inhibitory concentration (IC50) with HLA-A*02:01 [3] (setting [7]) is no less than 86100 nM. Take FKAALSSLA: the IC50 with HLA-A*02:01 [3] (setting [11]) is no less than 109000 nM. In the experiment with HLA-A*69:01 (source organism: Mycobacterium tuberculosis), FLHGGDFGV registered a Kd of 690 nM. In turn, FLIKFLLIH gave an IC50 with HLA-A*02:01 [3] (setting [11]) of no less than 296000 nM. For FLTCTDRSV, the Kd with HLA-A*02:01 [2] (source organism: Human alphaherpesvirus 1 strain 17) turned out to be 83 nM. As for FLYGWLFIL, the Kd in the experiment with HLA-A*02:01 [4] (source organism: Francisella tularensis subsp. tularensis) came to 102 nM.

For FTNDSIISH, the Kd with HLA-A*31:01 (setting [12]) was 1990 nM; with HLA-A*30:01 (setting [12]), no less than 45500 nM; in the experiment with HLA-A*03:01 (setting [12]), 303 nM; in the experiment with HLA-A*33:01 (setting [12]), 342 nM; in the experiment with HLA-A*68:01 (setting [12]), 81.9 nM. For the sequence GLYEWISEQ, the Kd with HLA-A*69:01 (setting [13]) was no less than 20000 nM; with HLA-A*02:01 [4] (setting [13]), 177 nM.

In the experiment with HLA-A*02:01 [3] (source organism: Vaccinia virus), GNLSPETLV registered a concentration for half-maximal inhibition (IC50) of no less than 106000 nM.

For the sequence GRLIWTLDA, in the experiment with HLA-A*02:01 [3] (setting [7]), the IC50 was no less than 593000 nM.

For GYSQIGAGVY, the Kd in the experiment with HLA-A*30:02 (setting [14]) was found to be 127 nM. In the experiment with HLA-A*02:01 [3] (setting [7]), HIPEGETTL showed an IC50 of 56200 nM. IDFLLRRWG yielded an IC50 with HLA-A*02:01 [3] (setting [7]) of 26200 nM. This IC50 lies about 2.1-fold lower than the previous one. Consider KHMIAGVLF, for which, in the experiment with HLA-A*24:02 (source organism: Dengue virus 3 Singapore/8120/1995), the Kd stood at 683 nM. Take KIKLILANK: the Kd with HLA-A*31:01 (setting [15]) was 1.46 nM; with HLA-A*11:01 [5] (setting [15]), 146 nM; in the experiment with HLA-A*30:01 (setting [15]), 109 nM; with HLA-A*03:01 (setting [15]), 21.6 nM; in the experiment with HLA-A*33:01 (setting [15]), no less than 25600 nM; with HLA-A*68:01 (setting [15]), no less than 28300 nM. As to KILAKAIFK, the Kd is 79.3 nM in the experiment with HLA-A*11:01 [5] (setting [6]), 292 nM in the experiment with HLA-A*30:01 (setting [6]) and 11.9 nM with HLA-A*03:01 (setting [6]). For the sequence KMQRMLLEK, the Kd with HLA-A*31:01 (setting [16]) is 19 nM; with HLA-A*33:01 (setting [16]) it was 13700 nM; with HLA-A*68:01 (setting [16]), 1380 nM; with HLA-B*15:01, no less than 40300 nM. As to KQLEWKWGI, the Kd with HLA-A*69:01 (setting [9]) is 23.2 nM; in the experiment with HLA-A*02:01 [4] (setting [9]), 0.7 nM.

In the experiment with HLA-B*58:01 (source organism: Influenza A virus (A/Yilan/515/03(H3N2))), KSFFSRLNW registered a Kd of 139 nM. For KYQLAVTIM, in the experiment with HLA-A*24:02 (setting [14]), the Kd amounted to 29.2 nM. In the case of LEDSHNGKL, the dissociation constant Kd with HLA-B*40:01 was determined as 73 nM.
